This is an account of results in article PMC6323126 (2019).

B1: SIKE1 (recombinant, limits not stated) [human] / SLMAP (recombinant, limits not stated for the experiment) [human] (parent complex)
chain 1: MSCTIEKILTDAKTLLERLREHDAAAESLVDQSAALHRRVAAMREAGTALPDQYQEDASDMKDMSKYKPHILLSQENTQIRDLQQENRELWISLEEHQDALELIMSKYRKQMLQLMVAKKAVDAEPVLKAHQSHSAEIESQIDRICEMGEVMRKAVQVDDDQFCKIQEKLAQLELENKELRELLSISSESLQARKENSMDTASQAIK
chain 2: YSQELFQLSQYLQEALHREQMLEQKLATLQRLLAITQEASDTSWQALIDEDRLLSRLEVMGNQLQACSKNQTEDSLRKELIALQEDKHNYETTAKESLRRVLQEKIEVVRKLSEVERSLSNTEDECTHLKEMNERTQEELRELANKYNGAVNEIKDLSDKLKVAEGKQEEIQQKGQAEKKELQHKIDEMEEKEQELQAKIEALQADNDFTNERLTALQVRLEHLQEKTLKECSSLEHLLSKSGGDCTFIHQFIECQKKLIVEGHLTKAVEETKLSKENQTRAKESDFSDTLSPSKEKSSDDTTDAQMDEQDLNEPLAKVSLLKDDLQGAQSEIEAKQEIQHLRKELIEAQELARTSKQKCFELQALLEEERKAYRNQVEESTKQIQVLQAQLQRLHIDTENLREEKDSEITSTRDELLSARDEILLLHQAAAKVASERDTDIASLQEELKKVRAELERWRKAASEYEKEITSLQNSFQLRCQQCEDQQREEATRLQGELEKLRKEWNALETECHSLKRENVLLSSELQRQEKELHNSQKQSLELTSDLSILQMSRKELENQVGSLKEQHLRDSADLKTLLSKAENQAKDVQKEYEKTQTVLSELKLKFEMTEQEKQSITDELKQCKNNLKLLREKGNNKP

The assay covers variants of B1. Briefly: BLI; read at the end of association (about 360 s); parent: 0.13; read off a plot. For orientation: In BLI a coated tip is dipped into the sample, and binding shifts an interference pattern.
As to chain 1 MSCTIEKILTDAKTLLERDREHDAAAESLVDQSAALHRRVAAMREAGTALPDQYQEDASDMKDMSKYKPHILLSQENTQIRDLQQENRELWISLEEHQDALELIMSKYRKQMLQLMVAKKAVDAEPVLKAHQSHSAEIESQIDRICEMGEVMRKAVQVDDDQFCKIQEKLAQLELENKELRELLSISSESLQARKENSMDTASQAIK [chain 1 L19D], the response was roughly 0.045 nm. To chain 1 MSCTIEKILTDAKTDLERLREHDAAAESLVDQSAALHRRVAAMREAGTALPDQYQEDASDMKDMSKYKPHILLSQENTQIRDLQQENRELWISLEEHQDALELIMSKYRKQMLQLMVAKKAVDAEPVLKAHQSHSAEIESQIDRICEMGEVMRKAVQVDDDQFCKIQEKLAQLELENKELRELLSISSESLQARKENSMDTASQAIK [chain 1 L15D] belongs roughly 0.045 nm; to chain 1 MSCTIEKILTDAKTDLERDREHDAAAESLVDQSAADHRRVAAEREAGTALPDQYQEDASDMKDMSKYKPHILLSQENTQIRDLQQENRELWISLEEHQDALELIMSKYRKQMLQLMVAKKAVDAEPVLKAHQSHSAEIESQIDRICEMGEVMRKAVQVDDDQFCKIQEKLAQLELENKELRELLSISSESLQARKENSMDTASQAIK [chain 1 L15D, chain 1 L19D, chain 1 L36D, chain 1 M43E], roughly 0.02 nm; to chain 1 MSCTIEKILTDAKTLLERLREHDAAAESLVDQSAALHRRVAAEREAGTALPDQYQEDASDMKDMSKYKPHILLSQENTQIRDLQQENRELWISLEEHQDALELIMSKYRKQMLQLMVAKKAVDAEPVLKAHQSHSAEIESQIDRICEMGEVMRKAVQVDDDQFCKIQEKLAQLELENKELRELLSISSESLQARKENSMDTASQAIK [chain 1 M43E], roughly 0.05 nm. As to chain 1 MSCTIEKILTDAKTLLERLREHDAAAESLVDQSAADHRRVAAMREAGTALPDQYQEDASDMKDMSKYKPHILLSQENTQIRDLQQENRELWISLEEHQDALELIMSKYRKQMLQLMVAKKAVDAEPVLKAHQSHSAEIESQIDRICEMGEVMRKAVQVDDDQFCKIQEKLAQLELENKELRELLSISSESLQARKENSMDTASQAIK [chain 1 L36D], the response is roughly 0 nm.
